Key:
[1] = system: FLI1-CTD (C-terminal FLI1 domain, non-acetylated); assay: EMSA; details: Non-radioactive EMSA: 1 ug protein, 500 fmol biotinylated dsDNA, binding buffer per Uren et al. 2004 (not given); 6% gel in 0.5x TBE; protein stock 20 mM …
acetyl-FLI1-CTD = assay: EMSA; details: acetylated by CBP HAT; 1 ug protein, 500 fmol probe; Non-radioactive EMSA: 1 ug protein, 500 fmol biotinylated dsDNA, binding buffer per Uren et al. 2004 (not given); 6% gel in 0.5x TBE; protein stock 20 mM …

Work on “ets-binding site oligonucleotide (wild type)” yielded a binding signal (fold (reference, non-acetylated)) [1] of 1 and a binding signal (fold vs non-acetylated FLI1-CTD) (acetyl-FLI1-CTD) of 4.

Source: PMC3435532
